{"source": "the supplement of paper PMC9170038"}
{"tested_on": "MS2 coat protein", "experiment": "apparent KD of MS2 coat protein, switch ON state; designed switch direction (-1 OFF switch, 1 ON switch): -1; higher = weaker reporter binding", "conditions": "FMN input: 0 or 200 uM; Eterna round: R93 (includes R88 designs)", "in_short": "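SNAP-549-labelled MS2 coat protein was titrated onto designed RNA switches that had been transcribed on-chip from Illumina sequencing clusters. Amounts doubled from 0.7 or 1.5 nM to 3 µM in 100 mM Tris-HCl pH 7.5, 80 mM KCl, 4 mM MgCl2, with constant ligand or without. Apparent KD is the median per design of normalised cluster binding-curve fits.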", "units": {"apparent KD of MS2 coat protein": "nM"}}
{"sequence": "AGAAAGGCAGGAUAUACAUGAGGAUCACCCAUGUUAAGAAAGUGCGAAAGCACAAGAAGUAGAAGGGCCAAGAA [Rupert goes to college]", "apparent KD of MS2 coat protein": 23.2}
{"sequence": "GAAAAAGGAGGAUAUACGAACAUGUCAAAAGACGUGAAGGGACAUGAGGAUCACCCAUGUAGAAGGCUUAAAAG [Mat - Exclusion 2 - JL mod - D94]", "apparent KD of MS2 coat protein": 37.4}
{"sequence": "AAAGGACGAGGAUAUACAUGAGGAUCACCCAUGUAAAAAGCAUAAUAAAAUAACUUAUGUAGAAGGCGUCCAAA [Mat - Exclusion 3 - Eli mod - D91]", "apparent KD of MS2 coat protein": 22}
{"sequence": "GAAAAGUCAGGAUAUACAGAAAAAAAAACGAAAAAAAAUCUGUAGAAGGGACAUGAGGAUCACCCAUGUUAAAG [Mat - Exclusion 4 - Mayanna - D126]", "apparent KD of MS2 coat protein": 38}
{"sequence": "CUCAUGUCAGGAUAUGUCAAAAGUCACAAAAGUGACAAAAGACAGAAGGGACAUGAGGAUCACCCAUGUAAAAA [Starry Exclusion 4.6 (starryjess round 1 mod)]", "apparent KD of MS2 coat protein": 20.6}
{"sequence": "AAAAAGUCAGGAUAUACAUGAGGAUCACCCAUGUAAAAAAAAGGGAAAAAAAAAAAGGGUAGAAGGGACGAAAA [Exclusion 3]", "apparent KD of MS2 coat protein": 25.3}
{"sequence": "AGUCAUACAGGAUAUACAUGAGGAUCACCCAUGUUUAUCCUAAAAGGGUGAUCCUCAUGUAGAAGGGUAUGACA [EX3 209: Super Stable 9]", "apparent KD of MS2 coat protein": 23.7}
{"sequence": "ACUGAUACAGGAUAUACGUGAGUGGAAAAAGUGUUUCCACUACAUGAGGAUCACCCAUGUAGAAGGGUAUCAGA [Ex2 Design 180: Random 6]", "apparent KD of MS2 coat protein": 77.4}
{"sequence": "AAAAAACAUGAGGAUCACCCAUGUGAGGAUAUGCAAAAGAAAAGAAAAGAAAGAAGAAGCAGAAGGUACAAGAA [Shepseskare Isi]", "apparent KD of MS2 coat protein": 22.6}
{"sequence": "AAGAACACAGGAUAUACAUGAGGAUCACCCAUGUAAAAGAAAGAAGGGAAAGAGAAAAGUAGAAGGGUGAAGAA [Ker]", "apparent KD of MS2 coat protein": 33.1}
{"sequence": "AACUGACAUGAGGAUCACCCAUGUCAGGAUAUGACAUCGAAAAAUAAAUAAAUCGUUGUCAGAAGGGACAUGGA [Design 74: Sub-opt RB]", "apparent KD of MS2 coat protein": 25.1}
{"sequence": "AAAUCAGUAGGAUAUACGAUUUUAUGCUAGAUAGAGGAACCACAUGAGGAUCACCCAUGUAGAAGGACUAGAUA [EX2 Malc#24]", "apparent KD of MS2 coat protein": 14.5}
{"sequence": "AAAAAACAUGAGGAUCACCCAUGUAAGGAUAUGCUGAAAAAAACCUGGAAAACAGGCAGCAGAAGGUACAAAAA [66%, Wbt, 36]", "apparent KD of MS2 coat protein": 23.9}
{"sequence": "AGAAUACAUGAGGAUCACCCAUGUGAGGAUAUGCAAAUAAAAAUAAAAUAAAAUAAUUGCAGAAGGCACGAAAG [EX 1 May 23]", "apparent KD of MS2 coat protein": 44.4}
{"sequence": "AAAAACAUAGGAUAUACAUGAGGAUCACCCAUGUUAAAAUAAAGAAAGGGAGAAAUAAGUAGAAGGAUGAAAAA [Meechl Ex3 3]", "apparent KD of MS2 coat protein": 26.5}
{"sequence": "AAAAAGUGAGGAUAUGGAAAAAAAAAAAAAAAAAAAAAAAACCAGAAGGCACAUGAGGAUCACCCAUGUAAAAA [low kcal]", "apparent KD of MS2 coat protein": 38.6}
{"sequence": "AGGAUGUCAGGAUAUGUGUAAAGAAUAAAAGAAAUAACAACACAGAAGGGACAUGAGGAUCACCCAUGUUAAAA [May 35]", "apparent KD of MS2 coat protein": 48.8}
{"sequence": "AAAAAGUCAGGAUAUAUGCGAAAAAUAAAAAAAAUAAAAGCAUAGAAGGGACAUGAGGAUCACCCAUGUUAAAA [Ex 4 May 16]", "apparent KD of MS2 coat protein": 36.6}
{"sequence": "AACAUACAUGAGGAUCACCCAUGUCAGGAUAUGCCGGGUUAGAAAAAAAAAAAAAAACGUAGAAGGGACAAAAA [Bilbo Confounded 3 - Jieux - Exclusion 1]", "apparent KD of MS2 coat protein": 62.4}
{"sequence": "AAAAGCAAAGGAUAUACAUGAGGAUCACCCAUGUAAAAAAGAAAAGAGUAUAUGGCAUGUAGAAGGUUGCGUGG [Rabisoxe]", "apparent KD of MS2 coat protein": 26.2}
{"sequence": "AAAAAACAUGAGGAUCACCCAUGUGAGGAUAUCGAAAAGUCAAAGAAAAAGACGAAAACGAGAAGGCACAAAAA [Mat - Mod of Eli 2]", "apparent KD of MS2 coat protein": 28.1}
{"sequence": "AGGAAACAUGAGGAUCACCCAUGUCAGGAUAUUUGAAAGAAAAGAAAAGAAAGAAGAAGAAGAAGGGACAAGAA [Narmer]", "apparent KD of MS2 coat protein": 27.6}
{"sequence": "AAGAAUCGAGGAUAUACAUGAGGAUCACCCAUGUAAAAGAAAGAAGGGAAAGAGAAAAGUAGAAGGCGAAAGAA [Menkheperre Nekau I]", "apparent KD of MS2 coat protein": 22.6}
{"sequence": "AAAAAGGUAGGAUAUACGAAAAAAAAGGGUAGAAAAAUAAAACAUGAGGAUCACCCAUGUAGAAGGACCAAAAA [Ex 2 sub 1 70% 1]", "apparent KD of MS2 coat protein": 25.8}
{"sequence": "CUCAUGUAAGGAUAUGACUACAUAAAAAAAAAAAAAUGUAGUCAGAAGGUACAUGAGGAUCACCCAUGUACAAA [Brourd - Exclusion 4 - Sub 3]", "apparent KD of MS2 coat protein": 59}
{"sequence": "AAAACGUGAGGAUAUGCACCAAAAAAGGUAAAUCGGGUACGACAUGAGGAUCACCCAUGUAGAAGGCACGAAAA [Frodo Flailing 11 - Jieux - Exclusion 2]", "apparent KD of MS2 coat protein": 28.2}
{"sequence": "AAAAAGGGAGGAUAUACAUGAGGAUCACCCAUGUGAAAGACGAAAAAGAGUCUAAAAAGUAGAAGGCCCAAAAA [65%, Moding Exclusion3-cac2, 9]", "apparent KD of MS2 coat protein": 33.5}
{"sequence": "AAGAACAAAGGAUAUACAAGGAAGAAAGAAAAGAAAAGAAAACAUGAGGAUCACCCAUGUAGAAGGUUGUAGAA [EteRNA is fun!]", "apparent KD of MS2 coat protein": 24.7}
{"sequence": "AAAAAGUCAGGAUAUGCAGACAAAGCAAAAAAGCAAUGUCUGCAGAAGGGACAUGAGGAUCACCCAUGUAAAAA [Ex 4 May 9]", "apparent KD of MS2 coat protein": 57.7}
{"sequence": "AUGGUACAUGAGGAUCACCCAUGUCAGGAUAUCGGCUAAAACGUAAAAAAAAUAAAAGCGAGAAGGGACUGCUC [EX1 Malc#18 Mod 8 - Jieux - Exclusion 1]", "apparent KD of MS2 coat protein": 24}
{"sequence": "AAGAAGUGAGGAUAUCGUUGUCGUCACAAAAGUGAUGACGACGAGAAGGCACAUGAGGAUCACCCAUGUAAAGA [Opal 28]", "apparent KD of MS2 coat protein": 37.8}
{"sequence": "AACAGUACAGGAUAUACAUGAGGAUCACCCAUGUGAGAAUUAAGUGGAGGACCACAAAGUAGAAGGGUACUGAA [Mat - Exclusion 3 - JL mod - D9]", "apparent KD of MS2 coat protein": 56.9}
{"sequence": "AAAAAACAUGAGGAUCACCCAUGUGAGGAUAUCGAUAUUAAAGACACCCACUUAAUGGCGAGAAGGCGCAAAAA [Brourd 613 Mod 20 - Jieux - Exclusion 1]", "apparent KD of MS2 coat protein": 25.4}
{"sequence": "CCUACGUGAGGAUAUGCGGAUAACACGUUAGACAAAUAGACGCAGAAGGCACAUGAGGAUCACCCAUGUGAACC [JR_Exc004_Sub317]", "apparent KD of MS2 coat protein": 21.9}
{"sequence": "CAGAGACAUGAGGAUCACCCAUGUUAGGAUAUGCGUGUAUGCUAAAAAAAGUUAACAAGCAGAAGGAACAGAGG [JR_Exc001_Sub309]", "apparent KD of MS2 coat protein": 24.3}
{"sequence": "AAAAAACAUGAGGAUCACCCAUGUCAGGAUAUGCGAAGCAAAAAAAAAAAAAAGCGAAGCAGAAGGGACUAAAA [Exclusion1 Malc#5]", "apparent KD of MS2 coat protein": 38.2}
{"sequence": "AGGAAACAUGAGGAUCACCCAUGUGAGGAUAUGUAAAAGAAAAGAAAAGAAAGAAGAAACAGAAGGCACAAGAA [Nynetjer]", "apparent KD of MS2 coat protein": 49.4}
{"sequence": "AACAUGUAAGGAUAUUGAAGAAAAGAAAAGAAAGAAAAGAACAAGAAGGUACAUGAGGAUCACCCAUGUAAGAA [EteRNA is fun!]", "apparent KD of MS2 coat protein": 33.7}
{"sequence": "ACUAAUGAAGGAUAUACAAACAAAAAAAAAACAAAAAAAAAACAUGAGGAUCACCCAUGUAGAAGGUCAAAAAU [JR_Exc002_Sub1201]", "apparent KD of MS2 coat protein": 22}
{"sequence": "AAAAAGUGAGGAUAUUCGGAUAGGAAAACGAAAACCUAUCCGAAGAAGGCACAUGAGGAUCACCCAUGUGAAAG [Mat - Exaclusion 4 - Eli mod - D42]", "apparent KD of MS2 coat protein": 28}
{"sequence": "AAAAAGUGAGGAUAUGCGCUGUCAUGUAGACACGAGCAGUCGUAGAAGGCACAUGAGGAUCACCCAUGUUUAAA [EX4 Malc#24]", "apparent KD of MS2 coat protein": 31.9}
{"sequence": "AAGAGUAGAGGAUAUAUAUGAAAAGAGUCGAAAGACUCAAAACAUGAGGAUCACCCAUGUAGAAGGCUACUCAA [Hyphema Seclusion mod]", "apparent KD of MS2 coat protein": 18.7}
{"sequence": "AGUGAGUGAGGAUAUUACUGAAGAAUAAAAGAAAUAACAAGUAAGAAGGCACAUGAGGAUCACCCAUGUACACA [May 61]", "apparent KD of MS2 coat protein": 22.4}
{"sequence": "GAAAAGUGAGGAUAUACAUGAGGAUCACCCAUGUGUAUAAAAAAUUACACAAAAGAAAGUAGAAGGCACUAAAA [Mat - Exclusion 3 - Mayanna mod - D114]", "apparent KD of MS2 coat protein": 17.8}
